The target of this assay is human extracellular signal-regulated kinase 1/2 (Erk) (human) (UniProt P27361). As to the kind of experiment: cell-based or functional assay.

We go through one substance from patent publication US20230310650A1.

Chain of UniProt P27361 (P27361 2-379 limits assumed, chain 1 of 2): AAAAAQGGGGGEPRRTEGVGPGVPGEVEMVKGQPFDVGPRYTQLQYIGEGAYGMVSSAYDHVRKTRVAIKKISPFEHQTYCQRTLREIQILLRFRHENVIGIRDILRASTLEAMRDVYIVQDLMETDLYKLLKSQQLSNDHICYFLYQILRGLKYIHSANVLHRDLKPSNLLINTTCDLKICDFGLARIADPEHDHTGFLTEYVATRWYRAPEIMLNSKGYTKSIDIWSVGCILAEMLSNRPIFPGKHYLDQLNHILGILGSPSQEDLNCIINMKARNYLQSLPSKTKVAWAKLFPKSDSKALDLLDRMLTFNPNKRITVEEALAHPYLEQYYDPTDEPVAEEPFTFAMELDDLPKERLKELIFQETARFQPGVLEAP
Chain of UniProt P27361 (P28482 2-360 limits assumed, chain 2 of 2, further chain): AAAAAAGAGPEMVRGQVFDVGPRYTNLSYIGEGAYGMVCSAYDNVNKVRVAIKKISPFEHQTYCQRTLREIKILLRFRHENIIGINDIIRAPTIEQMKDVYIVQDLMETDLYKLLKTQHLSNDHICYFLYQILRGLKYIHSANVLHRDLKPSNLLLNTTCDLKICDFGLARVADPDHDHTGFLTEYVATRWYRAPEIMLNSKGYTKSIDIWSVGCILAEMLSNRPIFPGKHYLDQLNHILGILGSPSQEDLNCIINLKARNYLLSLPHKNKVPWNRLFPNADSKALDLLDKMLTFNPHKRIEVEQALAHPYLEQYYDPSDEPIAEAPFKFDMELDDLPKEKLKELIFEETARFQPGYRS

Regarding “MAPK phosphothreonine lyase OspF of Shigella flexneri, expressed from pGB4 as a fusion to TEM-1 (from UniProt Q8VSP9 1-239)”, the decrease in p-Erk percentages of live t-Erk positive T cells (flow cytometry) after infection with E. coli TOP10 pGB4 is above 60%.
